Laboratory results taken from the DeepSol protein solubility set.

Experiment: soluble on expression in E. coli; label from the status in PepcDB or PDB records

Row | Sequence | soluble on expression in E. coli
1 | AIAAQDENKEQPKKDWKTIISPQYWKNSVSLLFTDAEQGNFVLPSLQSVSFSKASETIGKQVKESAKELGALFSAEECPSQQGSKEAPWEVLTAREKPFAKEIEERILKITSDCYRSRKEREEIFLSLSSLKDSHFRWSNNSSEKMKQAMAALEKDPILPDLRAGLVPKRMSEENFWRQYFYLVEKVKKSVVTNSQFGLFDEWESWSDTTSHPTLEHSQENSDLDNEVDQVLNDVLE | soluble
2 | AIAATPTEHEDLSEQEVTEDEFKTPKIRETPEDIKLEAIVNTIAFHPKQDILAAGDIDGDIYLFSYSCTEGENKELWSSGHHLKSCRKVLFSSDGQKLFSVSKDKAIHIMDVEAGKLETRIPKAHKVPINAMLLIDENIFATGDDEGTLKVWDMRKGTSFMDLKHHEDYISDITIDQAKRTLLTSSGDGTLGVFNIKRRRFELLSEIQNGDLTSVSIMKRGRKVVCGSGEGTIYIFNWNGFGATSDRFAVQAESVDCIVPITDSILCAASTDGVIRAINILPNRVVGSIGQHVGEAIEEIARCRDTHFLASCAHDELIKFWDISSLPDEKVNDYRRRKKKDRRLKALSNKAFDTGQNFFAGLLDTTEENGKEGENDEDDDDEDSDSGSD | soluble
3 | AIAEAEGMLPPQSLSAKFEGSFAYLTVRDRLPTILTKVVDTLHRNKDNFYKEYGEEGTEAEKRAISFLSRLRNELQTDKPVLALTDNAEDTQAWNEYMERQQDLMENGQLVSWFKSPWLYVECYMYRRIQEALYMNPPMHNFDPFKEGKTQSYFESQQAIKYLCTYLQELITNMENMTEIQLRENFLKLIQVSLWGNKCDLSISAGQDNSQKLSPIDSLPDLQRFILVDDSSMVWSTLVASQGSRSSGMKHARVDIILDNAGFELVTDLVLADFLISSGLAKQIRFHGKSIPWFVSDVTKQDFEWTIKQTMAANHKWMSASGVQWKHFMKEGTWSYHDHPFWTLPHEFCDMTVDAANLYSTLQTSDLILFKGDLNYRKLTGDRKWEHTVRFDQALRGFQPAPLCSLRTLKADVQVGLQAGHAEKLSTQDPDWMTNGKYAVVQFSSPHREQ | soluble
4 | AIAGGAVSAGQDNDELIDNLKEAQYIRTEAVEKAFRAIDRADYYLEEFKQNAYRDLAWKHGNIHLSAPCIYSEVMEALDLQPGLSFLNLGSGTGYLNTMAGLILGPFGINHGVEIHADVIEYAKEKLDLFVHTSDSFDRFDFCEPSFVAGNCLDIALDCMYDRVYCGAGVQKEHKEYMKNLIKVGGILVLPLEEKLTKITRTGPSSWETKKILAVSFAPLIQPDHVESAKSKSLQLPLPNIRSLQDLSRITIRRHIKKIVNQVPNGRGDGVMKNPPRYKRKRLRRRPLQTVVYLEEGGFACRIQNSFDDNNNCEGAGNCEGAGDDLAEKEEQGVSETKPNPPVNFLREKILCLPLPVPLKYYLLYYREK | soluble
5 | AIAGSVNSRGHKAEAQVVMMGLDSAGKTTLLYKLKGHQLVETLPTVGFNVEPLKAPGHVSLTLWDVGGQAPLRASWKDYLEGTDILVYVLDSTDEARLPESAAELTEVLNDPNMAGVPFLVLANKQEAPDALPLLKIRNRLSLERFQDHCWELRGCSALTGEGLPEALQSLWSLLKSRSCMCLQARAHGAERGDSKRS | soluble
6 | AIASKREDEGCARKRRTEAGQRSEDCMNPNSVVISAFKVFQQELDTRYDKYERLVKISRDVTIESKRTIFLLHRVASVPDVEEILNEAEVKLDGVRQKIGQIAEELRGEDLHQFHRAFTPGIQEYVEAVSFHHFIRHRSLISLEEINARLVFIRDNNKAVGEGTFSSPCVLTFQITPTDYLLGVADLTGELMRMCISSVGNGDMDTPFQLSGFLRQIHDGFSLIGNTGPYEVSKKLHALRQSLGKVEDACYTLRVRGSEIPKHMLADVFSSRAAHIDPDDAMA | soluble
7 | AKDALLLWCQMKTAGYPNVNVHNFTTSWRDGLAFNAIVHKHRPDLLDFESLKKCNAHYNLQNAFNLAEKELGLTKLLDPEDVNVDQPDEKSIITYVATYYHYFSKMKALAVEGK | soluble
8 | ALAQKRDNVLFQAATDEQPAVIKTLEKLVNIETGTGDAEGIAAAGNFLEAELKNLGFTVTRSKSAGLVVGDNIVGKIKGRGGKNLLLMSHMDTVYLKGILAKAPFRVEGDKAYGPGIADDKGGNAVILHTLKLLKEYGVRDYGTITVLFNTDEEKGSFGSRDLIQEEAKLADYVLSFEPTSAGDEKLSLGTSGIAYVQVNITGKASHAGAAPELGVNALVEASDLVLRTMNIDDKAKNLRFNWTIAKAGNVSNIIPASATLNADVRYARNEDFDAAMKTLEERAQQKKLPEADVKVIVTRGRPAFNAGEGGKKLVDKAVAYYKEAGGTLGVEERTGGGTDAAYAALSGKPVIESLGLPGFGYHSDKAEYVDISAIPRRLYMAARLIMDLGAGK | soluble
9 | ALIDVVVVCDESNSIYPWDAVKNFLEKFVQGLDIGPTKTQVGLIQYANNPRVVFNLNTYKTKEEMIVATSQTSQYGGDLTNTFGAIQYARKYAYSAASGGRRSATKVMVVVTDGESHDGSMLKAVIDQCNHDNILRFGIAVLGYLNRNALDTKNLIKEIKAIASIPTERYFFNVSDEAALLEKAG | soluble
10 | ALNQMNNLMTQEATGLKILCAPDKDSSFVIYEDDGETMDYANGGYLKTVLDIKAGEQTVLSFRNEGEYETAVEDIYLDVIHREKAPYWVKADGHELPHFLHRKKFEAAQEGWYYSQSLKSVQIKYKNPKKDYEVIVSFEQFDMIGM | not soluble
11 | AMARVGVLGAKGKVGATMVRAVAAADDLTLSAELDAGDPLSLLTDGNTEVVIDFTHPDVVMGNLEFLIDNGIHAVVGTTGFTAERFQQVESWLVAKPNTSVLIAPNFAIGAVLSMHFAKQAARFFDSAEVIELHHPHKADAPSGTAARTAKLIAEARKGLPPNPDATSTSLPGARGADVDGIPVHAVRLAGLVAHQEVLFGTEGETLTIRHDSLDRTSFVPGVLLAVRRIAERPGLTVGLEPLLDLH | soluble
12 | AMLAELTHRCPLACPYCSNPLALHGKARELDTQTWARAFDEAAALGVLQLHLSGGEPASRPDLVELTRAAHEAGLYTNLITSGIGLTPARLDALEAVGLDHIQLSLQGTTPDLADRIGGYKGGFARKMAVAAEIKARGIPLTLNAVMHRHNLDDLERTIELAIELGARRLEVACVQFHGWATRNRAALLPSRAQTEAAKRIVAEAEARLRGTLAFDFVPPDYYADYPKACMGGWGSAGLNIAPDGTVLPCHAA | not soluble
13 | APLKLYGMPLSPNVVRVATVLNEKGLDFEIVPVDLTTGAHKQPDFLALNPFGQIPALVDGDEVLFESRAINRYIASKYASEGTDLLPATASAAKLEVWLEVESHHFYPNASPLVFQLLVRPLLGGAPDAAVVDKHAEQLAKVLDVYEAHLARNKYLAGDEFTLADANHASYLLYLSKTPKAGLVAARPHVKAWWEAIVARPAFQKTVAAIPLPPPP | soluble
14 | APPSSFSAAKQQAVKIYQDHPISFYCGCDIEWQGKKGIPNLETCGYQVRKQQTRASRIEWEAVVPAWQFGHHRQCWQKGGRKNCSKNDQQFRLMEADLHNLTPAIGEVNGDRSNFNFSQWNGVDGVSYGRCEMQVNFKQRKVMPPDRARGSIARTYLYMSQEYGFQLSKQQQQLMQAWNKSYPVDEWECTRDDRIAKIQGNHNPFVQQSCQTQ | soluble
15 | AQKHVAIALCGKGNIGSSWLKLFAEQKEKLEQRHGMNFELVAVVDSQTYWFNEQGINPNQVATHFQDEALPNQEQSWLKKLGALEGYDEAVVIDVTASEELAEQYLDIAEHGLHLISANKVAGSAAGNYYYQVKDAFHKIGRHWLYNATVGAGLPINHTVRDLRESGDDIMALSGIFSGTLSWLFQQYDGSL | not soluble
16 | AQYKDDPILKAATIVSAPLDLAACANRIEQGFSKVYRRYLLSSLKRNALQKHHLLHGELALSYNSIKRVTRLYEFDDLITAPLHGFKDAQDYYDQCSGLSKLLQITLPTLIIHAKDDPFMTEEVIPKFVLPDNIDYRLFEHGGHVGFLTGT | not soluble
17 | ARDPKHDILFEPIQIGPKTLRNRFYQVPHAIGAGSDKPGFQSAHRSVKAEGGWAALNTEYCSINPESDDTHRLSARIWDEGDVRNLKAMTDEVHKYGALAGVELWYGGAHAPNMESRATPRGPSQYASEFETLSYCKEMDLSDIAQVQQFYVDAAKRSRDAGFDIVYVYGAHSYLPLQFLNPYYNKRTDKYGGSLENRARFWLETLEKVKHAVGSDCAIATRFGVDTVYGPGQIEAEVDGQKFVEMADSLVDMWDITIGDIAEWGEDAGPSRFYQQGHTIPWVKLVKQVSKKPVLGVGRYTDPEKMIEIVTKGYADIIGCARPSIADPFLPQKVEQGRYDDIRVCIGCNVCISRWEIGGPPMICTQNATAGEEYRRGWHPEKFRQTKNKDSVLIVGAGPSGSEAARVLMESGYTVHLTDTAEKIGGHLNQVAALPGLGEWSYHRDYRETQITKLLKKNKESQLALGQKPMTADDVLQYGADKVIIATGARWNTDGTNCLTHDPIPGADASLPDQLTPEQVMDGKKKIGKRVVILNADTYFMAPSLAEKLATAGHEVTIVSGVHLANYMHFTLEYPNMMRRLHELHVEELGDHFCSRIEPGRMEIYNIWGDGSKRTYRGPGVSPRDANTSHRWIEFDSLVLVTGRHSECTLWNELKARESEWAENDIKGIYLIGDAEAPRLIADATFTGHRVAREIEEANPQIAIPYKRETIAWGTPHMPGGNFKIEYKV | soluble
18 | ASKPVEPAKPAEPTKVEFEEKQGKRGVKLGTVAIILSIIFGGGLAYKLHEQQADYQAQIAQLQNQLEKAQASMKQELNQVKEETIEKATTVTHKAEVVLGQQQKSIESLQLAVADVKGRRPNDWLLAEADYLVKLAGRKLFLEHDVESATQLMESADQRIAALNDPSLVKLRKAMANDITKLRTVPLIDRDGLVLRLTALQQQVDKLPLANALLPEAQVVAQHEVSEDISNWQDNLMTSLKDFSENFITFRTRDGNVIPLLSPEQHFYLKENIKAKLETAIKAVYQEQGEIYTTSLTTADKWAMAFFNQDDNAVKEFNKALNQLSQQNIQVEYPAKLESQSQLSDVIRERLRREVTTMTGTGDK | not soluble
19 | ASLIEDIDKKHLVLLRDGRTLIGFLRSIDQFANLVLHQTVERIHVGKKYGDIPRGIFVVRGENVVLLGEI | not soluble
20 | ASMRPVRLMKVFVTRRIPAEGRVALARAADCEVEQWDSDEPIPAKELERGVAGAHGLLCLLSDHVDKRILDAAGANLKVISTMSVGIDHLALDEIKKRGIRVGYTPDVLTDTTAELAVSLLLTTCRRLPEAIEEVKNGGWTSWKPLWLCGYGLTQSTVGIIGLGRIGQAIARRLKPFGVQRFLYTGRQPRPEEAAEFQAEFVSTPELAAQSDFIVVACSLTPATEGLCNKDFFQKMKETAVFINISRGDVVNQDDLYQALASGKIAAAGLDVTSPEPLPTNHPLLTLKNCVILPHIGSATHRTRNTMSLLAANNLLAGLRGEPMPSELKL | soluble
21 | ATCDDGRTTANAACCILFPILDDIQENLFDGAQCGEEVHESLRLTFHDAIGFSPTLGGGGADGSIIAFDTIETNFPANAGIDEIVSAQKPFVAKHNISAGDFIQFAGAVGVSNCPGGVRIPFFLGRPDAVAASPDHLVPEPQDSVDSILARMGDAGFSPVEVVWLLASHSIAAADKVDPSIPGTPFDSTPGVFDSQFFIETQLKGRLFPGTADNKGEAQSPLQGEIRLQSDHLLARDPQTACEWQSMVNNQPKIQNRFAATMSKMALLGQDKTKLIDCSDVIPTPPALVGAAHLPAGFSLSDVEQACAATPFPALTADPGPVTSVPPVPGS | soluble
22 | ATEATNATNNQSTQVSQATSQPINFQVQKDGSSEKSHMDDYMQHPGKVIKQNNKYYFQTVLNNASFWKEYKFYNANNQELATTVVNDNKKADTRTINVAVEPGYKSLTTKVHIVVPQINYNHRYTTHLEFEKAIPTLADAAK | soluble
23 | AVVFLWRNEEKWPAEFVSENVVKFGYTVEDFISGNFLYGDIIHPEDRNRVKEELKTRIRRGEVDFNTGYRIFTKAGDVRWVNERAFIQRNREGEITHIQGLVLDIT | not soluble
